T1: recombinant murine EphB4-Fc fusion protein (mouse, UniProt P54761 16-539)
T1 construct: extracellular domain; also called mEphB4; mu EphB4; not shown: Fc part, not described
T1 sequence (looked up): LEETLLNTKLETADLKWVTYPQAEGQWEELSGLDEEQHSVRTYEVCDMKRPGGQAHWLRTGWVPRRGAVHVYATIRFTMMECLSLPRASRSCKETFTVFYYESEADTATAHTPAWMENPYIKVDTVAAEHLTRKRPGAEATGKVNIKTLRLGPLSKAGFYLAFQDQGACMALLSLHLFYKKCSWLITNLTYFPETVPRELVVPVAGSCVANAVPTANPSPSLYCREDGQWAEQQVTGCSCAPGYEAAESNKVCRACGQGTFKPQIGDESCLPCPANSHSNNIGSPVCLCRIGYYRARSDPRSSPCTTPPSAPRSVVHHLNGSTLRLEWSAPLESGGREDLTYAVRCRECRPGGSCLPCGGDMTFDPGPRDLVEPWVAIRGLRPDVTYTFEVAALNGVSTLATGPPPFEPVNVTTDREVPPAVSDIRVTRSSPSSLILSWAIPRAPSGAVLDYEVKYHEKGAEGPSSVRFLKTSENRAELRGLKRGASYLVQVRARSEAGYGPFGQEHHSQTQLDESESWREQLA

T2: myc-tagged human EphB4 on transfected CHO cells (human, UniProt P54760 16-987)
T2 construct: whole, on cells; also called CHO-EphB4; CHO-hEphB4; not shown: myc tag
T2 sequence (looked up): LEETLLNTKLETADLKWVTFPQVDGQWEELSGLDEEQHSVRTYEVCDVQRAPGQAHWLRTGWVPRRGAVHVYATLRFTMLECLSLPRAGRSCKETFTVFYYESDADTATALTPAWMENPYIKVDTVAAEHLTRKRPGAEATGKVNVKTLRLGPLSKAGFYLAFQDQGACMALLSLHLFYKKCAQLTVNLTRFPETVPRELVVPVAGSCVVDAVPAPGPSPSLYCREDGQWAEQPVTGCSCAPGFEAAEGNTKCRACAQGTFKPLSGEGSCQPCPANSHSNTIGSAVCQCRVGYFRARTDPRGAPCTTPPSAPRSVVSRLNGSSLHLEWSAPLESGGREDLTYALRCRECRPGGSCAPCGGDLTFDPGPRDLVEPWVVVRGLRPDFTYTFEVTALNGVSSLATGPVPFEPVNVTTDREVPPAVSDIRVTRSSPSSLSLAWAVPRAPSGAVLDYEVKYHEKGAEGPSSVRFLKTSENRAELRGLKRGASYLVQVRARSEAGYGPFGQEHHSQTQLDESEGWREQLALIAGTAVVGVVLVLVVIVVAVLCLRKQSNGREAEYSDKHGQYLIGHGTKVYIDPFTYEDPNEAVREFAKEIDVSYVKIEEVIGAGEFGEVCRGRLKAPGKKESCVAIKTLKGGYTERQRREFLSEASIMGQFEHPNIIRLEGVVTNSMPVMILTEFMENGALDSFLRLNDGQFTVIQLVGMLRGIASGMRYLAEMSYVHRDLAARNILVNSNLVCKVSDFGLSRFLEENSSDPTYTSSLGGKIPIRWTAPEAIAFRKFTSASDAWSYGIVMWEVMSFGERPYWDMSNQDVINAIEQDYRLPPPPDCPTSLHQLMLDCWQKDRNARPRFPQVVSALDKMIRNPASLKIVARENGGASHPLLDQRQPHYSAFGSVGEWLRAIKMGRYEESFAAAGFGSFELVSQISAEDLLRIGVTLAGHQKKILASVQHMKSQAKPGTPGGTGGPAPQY

T3: recombinant human EphB4-Fc fusion protein (human, UniProt P54760 16-539)
T3 construct: extracellular domain; also called hEphB4; hu EphB4-Fc
T3 sequence (looked up): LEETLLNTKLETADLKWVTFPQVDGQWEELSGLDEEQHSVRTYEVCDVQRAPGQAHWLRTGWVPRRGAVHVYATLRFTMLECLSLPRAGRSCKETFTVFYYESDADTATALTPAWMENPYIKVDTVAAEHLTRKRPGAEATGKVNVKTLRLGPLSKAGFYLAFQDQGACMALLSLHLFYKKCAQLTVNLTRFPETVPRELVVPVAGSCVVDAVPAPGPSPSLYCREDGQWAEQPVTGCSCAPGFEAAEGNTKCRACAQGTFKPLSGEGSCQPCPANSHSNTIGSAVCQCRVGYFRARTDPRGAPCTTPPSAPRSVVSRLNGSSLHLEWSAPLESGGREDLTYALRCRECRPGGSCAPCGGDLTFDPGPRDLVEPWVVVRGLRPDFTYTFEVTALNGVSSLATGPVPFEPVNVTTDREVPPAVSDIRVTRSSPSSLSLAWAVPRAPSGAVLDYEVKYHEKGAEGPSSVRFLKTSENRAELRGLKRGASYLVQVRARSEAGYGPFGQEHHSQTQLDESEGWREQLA


Assays:
[1] = target: T1, recombinant murine EphB4-Fc fusion …; experiment: competition ELISA, Fab against EphrinB2-Fc on immobilized murine EphB4
Protocol: (§1) IC₅₀ values were determined using recombinant antigen (murine and human EphB4) in an ELISA and on transfected cells in a FACS analysis (human EphB4 receptor).
(§2) Binding of (a fixed concentration of) the ligand EphrinB2-Fc to immobilized EphB4 receptor on an ELISA plate or on transfected cells is titrated with anti-EphB4 Fab. The IC₅₀ is determined as the amount of Fab at which the binding of EphrinB2 is inhibited by 50%.

[2] = target: T2, myc-tagged human EphB4 on transfected …; experiment: FACS competition on CHO-hEphB4 cells, competitor biotinylated mEphrinB2 250 ng/mL
Protocol: CHO-hEphB4 cells were trypsinized, washed and resuspended in FACS buffer (PBS/1% BSA) containing anti-EphB4 antibody at different concentrations and incubated at 4° C. for 30 min. Cells were washed in FACS buffer and resuspended in FACS buffer containing biotinylated mEphrinB2 at 250 ng/mL and incubated at 4° C. for 1 hr. cells were washed in FACS buffer and resuspended in FACS buffer containing Streptavidin-PE and incubated at 4° C. for 30 min. After a final wash step, cell staining was analyzed in a Becton Dickinson FACS.

[3] = target: T3, recombinant human EphB4-Fc fusion …; experiment: Biacore, EphB4-Fc on chip
Protocol: (§3) The affinity of the antibody fragments was determined using BIACORE™ analysis and cell ELISA. The Biacore chip was coated with recombinant human or murine EphB4-Fc fusion protein.

[4] = target: T1, recombinant murine EphB4-Fc fusion …; experiment: Biacore, EphB4-Fc on chip
Protocol: as §3

[5] = target: T2, myc-tagged human EphB4 on transfected …; experiment: FACS, Fab against EphrinB2-Fc on hEphB4-transfected cells
Protocol: as §1, §2

[6] = target: T3, recombinant human EphB4-Fc fusion …; experiment: competition ELISA, Fab against EphrinB2-Fc on immobilized human EphB4
Protocol: as §1, §2

IC50 [1] | IC50 (read off the curve) [2] | Kd [3] | Kd [4] | IC50 [5] | IC50 [6] | Binder
22 µg/mL | ~2 µg/mL | 13 nM | 43 nM | 2.8 µg/mL | 65 µg/mL | MOR03639 Fab (Fab, V domains shown, Monomeric HuCAL Fab (VH3, lambda3), purified, MH-tagged) VH: QVQLVESGGGLVQPGGSLRLSCAASGFTFSNYYLHWVRQAPGKGLEWVSGISYSGSSTYYADSVKGRFTISRDNSKNTLYLQMNSLRAEDTAVYYCARFYQRRQIPHGYDVWGQGTLVTVSS VL: DIELTQPPSVSVAPGQTARISCSGDNIGDYYVHWYQQKPGQAPVLVIYRDSNRPSGIPERFSGSNSGNTATLTISGTQAEDEADYYCGSYDMPFGGTVFGGGTKLTVLG
24 µg/mL | ~1 µg/mL | 35 nM | 151 nM | 4.4 µg/mL | 5 µg/mL | MOR03641 Fab (Fab, V domains shown, Monomeric HuCAL Fab (VH1A, kappa1), purified, MH-tagged; also called 3541 [sic]) VH: QVQLVQSGAEVKKPGSSVKVSCKASGGTFSTYAISWVRQAPGQGLEWMGRIIPIFGTANYAQKFQGRVTITADESTSTAYMELSSLRSEDTAVYYCARSSYTILTTYYNYNAMDNWGQGTLVTVSS VL: DIQMTQSPSSLSASVGDRVTITCRASQNINNFLNWYQQKPGKAPKLLIYGSSILQSGVPSRFSGSGSGTDFTLTISSLQPEDFAVYYCHQVSDTSDTFGQGTKVEIKR
117 µg/mL | ~0.4 µg/mL | 1.8 nM | 4 nM | 2.1 µg/mL | 33 µg/mL | MOR03640 Fab (Fab, V domains shown, Monomeric HuCAL Fab, purified, MH-tagged) VH: QVQLVESGGGLVQPGGSLRLSCAASGFTFNNSWMSWVRQAPGKGLEWVSNITSSSSMTHYADSVKGRFTISRDNSKNTLYLQMNSLRAEDTAVYYCARKGMSFYNNKYAKSMFDLWGQGTLVTVSS VL: DIELTQPPSVSVAPGQTARISCSGDNLGKKYVHWYQQKPGQAPVLVIYYDSKRPSGIPERFSGSNSGNTATLTISGTQAEDEADYYCSAWTTTMMHIVFGGGTKLTVLG

Source: patent US20090137002A1 (published 2009)
